Results reported in patent publication EP4424820A1.

Molecular target: NRPS-13 subunit B: SZ18 at the N-terminus of the C-terminal part of XtpS, split in the A-T linker of module two (Xenorhabdus nematophila ATCC 19061)
Test: cell-based or functional assay

Sequence of NRPS-13 subunit B: SZ18 at the N-terminus of the C-terminal part of XtpS, split in the A-T linker of module two (Xenorhabdus nematophila ATCC 19061) (chain, as listed by the source): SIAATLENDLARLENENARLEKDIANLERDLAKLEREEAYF

NRPS-13 subunit A: N-terminal part of XtpS, split in the A-T linker of module two, with SZ17 at its C-terminus (enzyme)
peptide yield of xenotetrapeptide 1 by the split synthetase NRPS-13 produced in E. coli DH10B::mtaA (HPLC-MS/MS): 155 mg/L
